Drawing on ChEMBL document CHEMBL2074368, “Kinetic analysis of calcein and calcein-acetoxymethylester efflux mediated by the multidrug resistance protein and P-glycoprotein” (Biochemistry, 1998), this text covers Km for 1 protein.

Substrate in data set [1]: O=C(O)CN(CC(=O)O)Cc1cc2c(cc1O)Oc1cc(O)c(CN(CC(=O)O)CC(=O)O)cc1C21OC(=O)c2ccccc21
The experiment in a line: (§1) TP_TRANSPORTER: efflux in GLC4/ADR cells. In kind it is functional, cell-based, GLC-4/ADR.

Substrate in data set [2]: CC(=O)OCOC(=O)CN(CC(=O)OCOC(C)=O)Cc1c(OC(C)=O)ccc2c1Oc1c(ccc(OC(C)=O)c1CN(CC(=O)OCOC(C)=O)CC(=O)OCOC(C)=O)C21OC(=O)c2ccccc21
The data set is described as §1. The class given is functional, cell-based, GLC-4/ADR.

A word on the Km: it is the concentration of substrate that gives half-maximal velocity.

B1: Multidrug resistance-associated protein 1 (Homo sapiens) (protein)
chain: MALRGFCSADGSDPLWDWNVTWNTSNPDFTKCFQNTVLVWVPCFYLWACFPFYFLYLSRHDRGYIQMTPLNKTKTALGFLLWIVCWADLFYSFWERSRGIFLAPVFLVSPTLLGITMLLATFLIQLERRKGVQSSGIMLTFWLVALVCALAILRSKIMTALKEDAQVDLFRDITFYVYFSLLLIQLVLSCFSDRSPLFSETIHDPNPCPESSASFLSRITFWWITGLIVRGYRQPLEGSDLWSLNKEDTSEQVVPVLVKNWKKECAKTRKQPVKVVYSSKDPAQPKESSKVDANEEVEALIVKSPQKEWNPSLFKVLYKTFGPYFLMSFFFKAIHDLMMFSGPQILKLLIKFVNDTKAPDWQGYFYTVLLFVTACLQTLVLHQYFHICFVSGMRIKTAVIGAVYRKALVITNSARKSSTVGEIVNLMSVDAQRFMDLATYINMIWSAPLQVILALYLLWLNLGPSVLAGVAVMVLMVPVNAVMAMKTKTYQVAHMKSKDNRIKLMNEILNGIKVLKLYAWELAFKDKVLAIRQEELKVLKKSAYLSAVGTFTWVCTPFLVALCTFAVYVTIDENNILDAQTAFVSLALFNILRFPLNILPMVISSIVQASVSLKRLRIFLSHEELEPDSIERRPVKDGGGTNSITVRNATFTWARSDPPTLNGITFSIPEGALVAVVGQVGCGKSSLLSALLAEMDKVEGHVAIKGSVAYVPQQAWIQNDSLRENILFGCQLEEPYYRSVIQACALLPDLEILPSGDRTEIGEKGVNLSGGQKQRVSLARAVYSNADIYLFDDPLSAVDAHVGKHIFENVIGPKGMLKNKTRILVTHSMSYLPQVDVIIVMSGGKISEMGSYQELLARDGAFAEFLRTYASTEQEQDAEENGVTGVSGPGKEAKQMENGMLVTDSAGKQLQRQLSSSSSYSGDISRHHNSTAELQKAEAKKEETWKLMEADKAQTGQVKLSVYWDYMKAIGLFISFLSIFLFMCNHVSALASNYWLSLWTDDPIVNGTQEHTKVRLSVYGALGISQGIAVFGYSMAVSIGGILASRCLHVDLLHSILRSPMSFFERTPSGNLVNRFSKELDTVDSMIPEVIKMFMGSLFNVIGACIVILLATPIAAIIIPPLGLIYFFVQRFYVASSRQLKRLESVSRSPVYSHFNETLLGVSVIRAFEEQERFIHQSDLKVDENQKAYYPSIVANRWLAVRLECVGNCIVLFAALFAVISRHSLSAGLVGLSVSYSLQVTTYLNWLVRMSSEMETNIVAVERLKEYSETEKEAPWQIQETAPPSSWPQVGRVEFRNYCLRYREDLDFVLRHINVTINGGEKVGIVGRTGAGKSSLTLGLFRINESAEGEIIIDGINIAKIGLHDLRFKITIIPQDPVLFSGSLRMNLDPFSQYSDEEVWTSLELAHLKDFVSALPDKLDHECAEGGENLSVGQRQLVCLARALLRKTKILVLDEATAAVDLETDDLIQSTIRTQFEDCTVLTIAHRLNTIMDYTRVIVLDKGEIQEYGAPSDLLQQRGLFYSMAKDAGLV
Regarding B1, the figures for the Km in data set [1] and in data set [2] were 268 µM and 0.05 µM, respectively.
